{"source": "patent US20220002423A1", "about": "(GENERAL HOSPITAL, published 2022)", "binders": {"B1": {"name": "agonistic TNFR2 antibody TNFRAG1 (antibody, V domains shown)", "VH": "EVQLQQFGAELVKPGASVKISCKASGYTFTDYNIDWVKQSHGKSLEWIGDINPNYDSTSYSQKFRGKATLTVDKSSSTAYMELRSLTSEDTAVYYCARGNSWYFDVWGAGTTVTVSS", "VL": "QIVLTQSPALMSASPGEKVTMTCSASSSVRYMYWYQQKPRSSPKPWIYLTSNLASGVPARFSGSGSGTSYSLTISSMEAEDAATYYCQQWSSNPLTFGAGTKLELK", "notes": "the primary antibodies were detected with secondary antibodies against rodent IgG; also called monoclonal TNFR2 antibody TNFRAG1; TNFR2 agonist antibody"}}, "key": {"[1]": {"molecular_target": "T1, Amino acid residues 98-117 of human TNFR2 (human)", "T1 sequence (peptide)": "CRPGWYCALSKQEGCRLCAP", "assay": "ELISA, antibody alone"}, "[2]": {"molecular_target": "T2, Amino acid residues 26-45 of human TNFR2 (human)", "T2 sequence (peptide)": "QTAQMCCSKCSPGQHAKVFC", "assay": "ELISA, antibody alone"}, "[3]": {"molecular_target": "T3, Amino acid residues 34-53 of human TNFR2 (human)", "T3 sequence (peptide)": "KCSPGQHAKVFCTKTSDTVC", "assay": "ELISA, antibody alone"}, "[4]": {"molecular_target": "T4, Amino acid residues 106-125 of human TNFR2 (human)", "T4 sequence (peptide)": "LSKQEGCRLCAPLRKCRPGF", "assay": "ELISA, antibody alone"}, "[5]": {"molecular_target": "T5, Amino acid residues 66-85 of human TNFR2 (human)", "T5 peptide": "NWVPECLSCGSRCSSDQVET", "assay": "ELISA, antibody alone"}, "[6]": {"molecular_target": "T6, Amino acid residues 82-101 of human TNFR2 (human)", "T6 peptide": "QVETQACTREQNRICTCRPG", "assay": "ELISA, antibody alone"}, "[7]": {"molecular_target": "T7, Amino acid residues 17-36 of human TNFR2 (human)", "T7 peptide": "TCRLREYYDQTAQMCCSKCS", "assay": "ELISA, antibody alone"}, "[8]": {"molecular_target": "T8, Amino acid residues 42-61 of human TNFR2 (human)", "T8 peptide": "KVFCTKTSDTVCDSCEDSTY", "assay": "ELISA, antibody alone"}, "[9]": {"molecular_target": "T9, Amino acid residues 170-189 of human TNFR2 (human)", "T9 peptide": "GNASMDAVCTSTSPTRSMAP", "assay": "ELISA, antibody alone"}, "[10]": {"molecular_target": "T10, Amino acid residues 9-28 of human TNFR2 (human)", "T10 peptide": "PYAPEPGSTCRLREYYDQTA", "assay": "ELISA, antibody alone"}, "[11]": {"molecular_target": "T11, Amino acid residues 74-93 of human TNFR2 (human)", "T11 peptide": "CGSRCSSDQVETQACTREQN", "assay": "ELISA, antibody alone"}, "[12]": {"molecular_target": "T12, TNFR2, hTNFR2 (23-207), 20kD (human, UniProt P20333)", "T12 construct": "fragment 23-207, 20kD (so in the source)", "T12 sequence (receptor fragment, looked up)": "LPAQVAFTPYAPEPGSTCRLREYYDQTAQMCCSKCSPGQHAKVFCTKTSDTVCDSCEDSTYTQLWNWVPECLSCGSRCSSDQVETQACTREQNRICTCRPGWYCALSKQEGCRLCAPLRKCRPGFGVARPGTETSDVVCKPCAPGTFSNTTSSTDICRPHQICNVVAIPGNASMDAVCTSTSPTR", "assay": "ELISA, antibody alone"}, "[13]": {"molecular_target": "T13, Amino acid residues 58-77 of human TNFR2 (human)", "T13 peptide": "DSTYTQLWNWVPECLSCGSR", "assay": "ELISA, antibody alone"}, "[14]": {"molecular_target": "T14, Amino acid residues 50-69 of human TNFR2 (human)", "T14 peptide": "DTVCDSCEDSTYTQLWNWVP", "assay": "ELISA, antibody alone"}, "[15]": {"molecular_target": "T15, Amino acid residues 90-109 of human TNFR2 (human)", "T15 peptide": "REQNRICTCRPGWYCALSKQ", "assay": "ELISA, antibody alone"}, "[16]": {"molecular_target": "T16, Amino acid residues 154-174 of human TNFR2 (human)", "T16 peptide": "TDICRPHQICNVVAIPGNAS", "assay": "ELISA on TNFR2 peptide fragment; categorical score, 0 lowest to 4 highest affinity"}, "[17]": {"molecular_target": "T6, Amino acid residues 82-101 of human …", "assay": "ELISA on TNFR2 peptide fragment; categorical score, 0 lowest to 4 highest affinity"}, "[18]": {"molecular_target": "T17, Amino acid residues 114-133 of human TNFR2 (human)", "T17 peptide": "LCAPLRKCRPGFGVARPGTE", "assay": "ELISA on TNFR2 peptide fragment; categorical score, 0 lowest to 4 highest affinity"}, "[19]": {"molecular_target": "T7, Amino acid residues 17-36 of human TNFR2", "assay": "ELISA on TNFR2 peptide fragment; categorical score, 0 lowest to 4 highest affinity"}, "[20]": {"molecular_target": "T9, Amino acid residues 170-189 of human …", "assay": "ELISA on TNFR2 peptide fragment; categorical score, 0 lowest to 4 highest affinity"}, "[21]": {"molecular_target": "T18, Amino acid residues 1-20 of human TNFR2 (human)", "T18 construct": "20-mer fragment", "T18 peptide": "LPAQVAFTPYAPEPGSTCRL", "assay": "ELISA on TNFR2 peptide fragment; categorical score, 0 lowest to 4 highest affinity"}, "[22]": {"molecular_target": "T10, Amino acid residues 9-28 of human TNFR2", "assay": "ELISA on TNFR2 peptide fragment; categorical score, 0 lowest to 4 highest affinity"}, "[23]": {"molecular_target": "T11, Amino acid residues 74-93 of human TNFR2", "assay": "ELISA on TNFR2 peptide fragment; categorical score, 0 lowest to 4 highest affinity"}, "[24]": {"molecular_target": "T19, Amino acid residues 130-149 of human TNFR2 (human)", "T19 peptide": "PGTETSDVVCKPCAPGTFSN", "assay": "ELISA on TNFR2 peptide fragment; categorical score, 0 lowest to 4 highest affinity"}, "[25]": {"molecular_target": "T14, Amino acid residues 50-69 of human TNFR2", "assay": "ELISA on TNFR2 peptide fragment; categorical score, 0 lowest to 4 highest affinity"}, "[26]": {"molecular_target": "T20, Amino acid residues 162-181 of human TNFR2 (human)", "T20 peptide": "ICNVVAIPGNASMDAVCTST", "assay": "ELISA on TNFR2 peptide fragment; categorical score, 0 lowest to 4 highest affinity"}, "[27]": {"molecular_target": "T15, Amino acid residues 90-109 of human …", "assay": "ELISA on TNFR2 peptide fragment; categorical score, 0 lowest to 4 highest affinity"}, "[28]": {"molecular_target": "T21, Amino acid residues 138-157 of human TNFR2 (human)", "T21 peptide": "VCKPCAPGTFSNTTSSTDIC", "assay": "ELISA on TNFR2 peptide fragment; categorical score, 0 lowest to 4 highest affinity"}}}
{"binder": "B1", "values": [{"measurement": "Affinity", "setting": "[1]", "result": 1}, {"measurement": "Reading", "setting": "[1]", "result": 2}, {"measurement": "Affinity", "setting": "[2]", "result": 1}, {"measurement": "Reading", "setting": "[2]", "result": 0.1}, {"measurement": "Affinity", "setting": "[3]", "result": 1}, {"measurement": "Reading", "setting": "[4]", "result": 2}, {"measurement": "Reading", "setting": "[5]", "result": 2}, {"measurement": "Reading", "setting": "[6]", "result": 2}, {"measurement": "binding result", "setting": "[7]", "result": "no binding"}, {"measurement": "binding result", "setting": "[8]", "result": "no binding"}, {"measurement": "binding result", "setting": "[9]", "result": "no binding"}, {"measurement": "binding result", "setting": "[10]", "result": "no binding"}, {"measurement": "Reading", "setting": "[11]", "result": 2}, {"measurement": "Reading", "setting": "[12]", "result": 1.2}, {"measurement": "binding result", "setting": "[13]", "result": "no binding"}, {"measurement": "binding result", "setting": "[14]", "result": "no binding"}, {"measurement": "Reading", "setting": "[15]", "result": 2}, {"measurement": "Affinity Score", "setting": "[16]", "result": 0}, {"measurement": "Affinity Score", "setting": "[17]", "result": 0}, {"measurement": "Affinity Score", "setting": "[18]", "result": 0}, {"measurement": "Affinity Score", "setting": "[19]", "result": 0}, {"measurement": "Affinity Score", "setting": "[20]", "result": 0}, {"measurement": "Affinity Score", "setting": "[21]", "result": 0}, {"measurement": "Affinity Score", "setting": "[22]", "result": 0}, {"measurement": "Affinity Score", "setting": "[23]", "result": 0}, {"measurement": "Affinity Score", "setting": "[24]", "result": 0}, {"measurement": "Affinity Score", "setting": "[25]", "result": 0}, {"measurement": "Affinity Score", "setting": "[26]", "result": 0}, {"measurement": "Affinity Score", "setting": "[27]", "result": 2}, {"measurement": "Affinity Score", "setting": "[28]", "result": 0}]}
